According to article PMC10397247:

How the values were obtained:
APC3645-AA = molecular target: T1, APC3645-AA; assay: two-hybrid library CCmax; conditions: mean of both orientations;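 further: natural log of median RNA to DNA barcode read ratio; higher means stronger binding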
T1 chain: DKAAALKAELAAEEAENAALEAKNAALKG

APC4011-AA = molecular target: T2, APC4011-AA; assay: two-hybrid library CCmax; conditions: mean of both orientations;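 further: natural log of median RNA to DNA barcode read ratio; higher means stronger binding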
T2 chain: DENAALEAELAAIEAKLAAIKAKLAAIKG

APC1434-AA = molecular target: T3, APC1434-AA; assay: two-hybrid library CCmax; conditions: mean of both orientations;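 further: natural log of median RNA to DNA barcode read ratio; higher means stronger binding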
T3 chain: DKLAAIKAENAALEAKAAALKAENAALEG

4H807-AA = molecular target: T4, 4H807-AA; assay: two-hybrid library CCmax; conditions: mean of both orientations;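 further: natural log of median RNA to DNA barcode read ratio; higher means stronger binding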
T4 chain: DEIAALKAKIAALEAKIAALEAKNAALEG

APC1015-AA = molecular target: T5, APC1015-AA; assay: two-hybrid library CCmax; conditions: mean of both orientations
T5 chain: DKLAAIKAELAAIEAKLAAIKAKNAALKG

APC6108-AA = molecular target: T6, APC6108-AA; assay: two-hybrid library CCmax; conditions: mean of both orientations
T6 chain: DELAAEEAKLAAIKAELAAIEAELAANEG

APC8910-AA = molecular target: T7, APC8910-AA; assay: two-hybrid library CCmax
T7 chain: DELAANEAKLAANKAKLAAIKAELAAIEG

APC4436-AA = molecular target: T8, APC4436-AA; assay: two-hybrid library CCmax; conditions: mean of both orientations
T8 chain: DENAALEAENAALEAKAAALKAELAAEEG

APC2237-AA = molecular target: T9, APC2237-AA; assay: two-hybrid library CCmax; conditions: mean of both orientations
T9 chain: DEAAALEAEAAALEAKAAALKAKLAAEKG

APC5383-AA = molecular target: T10, APC5383-AA; assay: two-hybrid library CCmax; conditions: mean of both orientations
T10 chain: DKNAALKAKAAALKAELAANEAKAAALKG

4H716-AA = molecular target: T11, 4H716-AA; assay: two-hybrid library CCmax; conditions: mean of both orientations
T11 chain: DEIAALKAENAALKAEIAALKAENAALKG

APC232-AA = molecular target: T12, APC232-AA; assay: two-hybrid library CCmax; conditions: mean of both orientations
T12 chain: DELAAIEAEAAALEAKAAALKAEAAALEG

APC2405-AA = molecular target: T13, APC2405-AA; assay: two-hybrid library CCmax; conditions: mean of both orientations
T13 chain: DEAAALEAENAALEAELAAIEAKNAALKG

APC9319-AA = molecular target: T14, APC9319-AA; assay: two-hybrid library CCmax; conditions: mean of both orientations
T14 chain: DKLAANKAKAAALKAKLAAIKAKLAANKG

4H733-AA = molecular target: T15, 4H733-AA; assay: two-hybrid library CCmax; conditions: mean of both orientations
T15 chain: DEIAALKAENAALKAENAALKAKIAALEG

4H3330-AA = molecular target: T16, 4H3330-AA; assay: two-hybrid library CCmax
T16 chain: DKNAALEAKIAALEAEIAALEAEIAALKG

APC8191-AA = molecular target: T17, APC8191-AA; assay: two-hybrid library CCmax; conditions: mean of both orientations
T17 chain: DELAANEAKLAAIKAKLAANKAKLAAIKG

APC4264-AA = molecular target: T18, APC4264-AA; assay: two-hybrid library CCmax; conditions: mean of both orientations
T18 chain: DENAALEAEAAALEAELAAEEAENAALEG

APC9096-AA = molecular target: T19, APC9096-AA; assay: two-hybrid library CCmax; conditions: mean of both orientations
T19 chain: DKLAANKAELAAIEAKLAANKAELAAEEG

APC7099-AA = molecular target: T20, APC7099-AA; assay: two-hybrid library CCmax; conditions: mean of both orientations
T20 chain: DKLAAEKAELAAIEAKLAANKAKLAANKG

4H741-bN = molecular target: T21, 4H741-bN; assay: two-hybrid library CCNG1
T21 chain: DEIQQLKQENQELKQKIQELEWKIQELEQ

4H2692-bN = molecular target: T22, 4H2692-bN; assay: two-hybrid library CCNG1
T22 chain: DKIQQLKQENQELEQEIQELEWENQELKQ

4H2503-bN = molecular target: T23, 4H2503-bN; assay: two-hybrid library CCNG1
T23 chain: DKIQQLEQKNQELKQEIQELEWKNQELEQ

4H2915-bN = molecular target: T24, 4H2915-bN; assay: two-hybrid library CCNG1
T24 chain: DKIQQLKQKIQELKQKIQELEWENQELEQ

4H40-bN = molecular target: T25, 4H40-bN; assay: two-hybrid library CCNG1
T25 chain: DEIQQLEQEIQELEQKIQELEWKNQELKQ

4H492-bN = molecular target: T26, 4H492-bN; assay: two-hybrid library CCNG1
T26 chain: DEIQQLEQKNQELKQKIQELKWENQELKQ

4H2717-bN = molecular target: T27, 4H2717-bN; assay: two-hybrid library CCNG1
T27 chain: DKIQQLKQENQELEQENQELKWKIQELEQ

4H2673-bH = molecular target: T28, 4H2673-bH; assay: two-hybrid library CCNG1
T28 chain: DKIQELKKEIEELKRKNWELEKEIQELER

4H3057-bN = molecular target: T29, 4H3057-bN; assay: two-hybrid library CCNG1
T29 chain: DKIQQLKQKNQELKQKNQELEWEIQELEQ

4H348-bN = molecular target: T30, 4H348-bN; assay: two-hybrid library CCNG1
T30 chain: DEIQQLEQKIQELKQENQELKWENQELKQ

4H2473-bN = molecular target: T31, 4H2473-bN; assay: two-hybrid library CCNG1
T31 chain: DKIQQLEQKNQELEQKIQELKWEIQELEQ

4H2588-bN = molecular target: T32, 4H2588-bN; assay: two-hybrid library CCNG1
T32 chain: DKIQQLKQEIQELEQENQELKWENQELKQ

4H2839-bN = molecular target: T33, 4H2839-bN; assay: two-hybrid library CCNG1
T33 chain: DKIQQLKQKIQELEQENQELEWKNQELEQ

4H477-bN = molecular target: T34, 4H477-bN; assay: two-hybrid library CCNG1
T34 chain: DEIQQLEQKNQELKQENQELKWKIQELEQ

4H3277-bN = molecular target: T35, 4H3277-bN; assay: two-hybrid library CCNG1
T35 chain: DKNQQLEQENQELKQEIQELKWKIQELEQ

4H319-bN = molecular target: T36, 4H319-bN; assay: two-hybrid library CCNG1
T36 chain: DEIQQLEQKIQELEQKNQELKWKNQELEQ

P6bHq = molecular target: T37, P6bHq; assay: two-hybrid library CCNG1
T37 chain: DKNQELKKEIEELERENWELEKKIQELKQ

P7bHq = molecular target: T38, P7bHq; assay: two-hybrid library CCNG1
T38 chain: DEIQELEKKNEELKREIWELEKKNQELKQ

P5bHq = molecular target: T39, P5bHq; assay: two-hybrid library CCNG1
T39 chain: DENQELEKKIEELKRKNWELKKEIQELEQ

P8bHq = molecular target: T40, P8bHq; assay: two-hybrid library CCNG1
T40 chain: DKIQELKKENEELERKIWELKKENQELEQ

P4bHq = molecular target: T41, P4bHq; assay: two-hybrid library CCNG1
T41 chain: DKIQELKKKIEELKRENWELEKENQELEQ

P9bHq = molecular target: T42, P9bHq; assay: two-hybrid library CCNG1
T42 chain: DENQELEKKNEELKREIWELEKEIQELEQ

B1: 4H3330-AA (peptide)
chain: DKNAALEAKIAALEAEIAALEAEIAALKG
With B1 the interaction score (APC3645-AA) was -1.25, the interaction score (APC4011-AA) was 2.04 and the interaction score (APC1434-AA) was -1.62. The interaction score (4H807-AA) was -1.35, the interaction score (APC1015-AA) was -0.658 and the interaction score (APC6108-AA) was 0.0413. The interaction score (APC8910-AA) was -0.0896, the interaction score (APC4436-AA) was -1.42 and the interaction score (APC2237-AA) was -0.433. The interaction score (APC5383-AA) was -1.16, the interaction score (4H716-AA) was -1.14 and the interaction score (APC232-AA) was -1.1. The interaction score (APC2405-AA) was -1.07, the interaction score (APC9319-AA) was 0.302 and the interaction score (4H733-AA) was -1.48. For the same binder, the interaction score (4H3330-AA) was 1.32, the interaction score (APC8191-AA) was 1.43 and the interaction score (APC4264-AA) was -1.37. The interaction score (APC9096-AA) was -1.65 and the interaction score (APC7099-AA) was -1.98.

B2: 4H2473-bN (peptide)
chain: DKIQQLEQKNQELEQKIQELKWEIQELEQ
B2 showed an interaction score (4H741-bN) of -1.72, an interaction score (4H2692-bN) of -0.666 and an interaction score (4H2503-bN) of -1.11. It also gave an interaction score (4H2915-bN) of 0.258, an interaction score (4H40-bN) of -0.598 and an interaction score (4H492-bN) of -0.992. It also gave an interaction score (4H2717-bN) of -2.13, an interaction score (4H2673-bH) of 0.46 and an interaction score (4H3057-bN) of -0.442. It also gave an interaction score (4H348-bN) of -0.231, an interaction score (4H2473-bN) of 0.273 and an interaction score (4H2588-bN) of -1.58. It also gave an interaction score (4H2839-bN) of -1.21, an interaction score (4H477-bN) of -0.81 and an interaction score (4H3277-bN) of -1.47. It also gave an interaction score (4H319-bN) of -0.961.

B3: P3bHq (peptide)
chain: DEIQELEKEIEELERKNWELKKKNQELKQ
With B3 the interaction score (P6bHq) was -0.227, the interaction score (P7bHq) was 0.482 and the interaction score (P5bHq) was 1.1. It also gave an interaction score (P8bHq) of 0.414, an interaction score (P4bHq) of 1.75 and an interaction score (P9bHq) of -0.595.
